According to patent publication US20260308258 (published 2026):
Where a chain is given by its changes, count along the chain named. Read-outs that look alike come from different tables or passages of the source.

Assays:
CD16a-F D82N = CD16a-F D82N (human); experiment: FACS
CD16b-NA2 ECD [1] = target: T1, CD16b-NA2 ECD (human); experiment: ELISA
T1 chain: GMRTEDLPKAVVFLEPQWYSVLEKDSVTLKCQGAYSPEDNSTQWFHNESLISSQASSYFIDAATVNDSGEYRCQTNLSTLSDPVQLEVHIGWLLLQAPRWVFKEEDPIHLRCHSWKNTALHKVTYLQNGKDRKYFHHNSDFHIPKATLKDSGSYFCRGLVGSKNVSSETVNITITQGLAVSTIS

CD16a-F ECD-Fc = CD16a-F ECD-Fc (human); experiment: ELISA
CD16b-NA1 ECD [2] = target: T2, CD16b-NA1 ECD (human); experiment: BLI, 30C
T2 chain: T1 chain with S20R, S49N, N66D, I90V

[3] = target: CD16a-V ECD deglycosylated (human); experiment: ELISA
[4] = target: CD16a-F ECD deglycosylated (human); experiment: ELISA
CD16a-V ECD [5] = target: CD16a-V ECD (human); experiment: ELISA
CD16b-NA2 ECD [6] = target: T1, CD16b-NA2 ECD; experiment: ELISA
CD16a-F ECD [7] = target: CD16a-F ECD (human); experiment: ELISA
CD16a-F ECD [8] = target: CD16a-F ECD (human); experiment: ELISA; remark: listed apart in the source
CD16b on neutrophils = target: T3, CD16b on neutrophils (human, UniProt O75015); experiment: FACS, neutrophils
T3 chain: T1 chain with S49N

CD16a-V ECD [9] = target: CD16a-V ECD (human); experiment: ELISA; remark: listed apart in the source
CD16b-NA1 ECD [10] = target: T2, CD16b-NA1 ECD; experiment: ELISA
Cyno CD16a ECD = target: T4, Cyno CD16a ECD (cynomolgus); experiment: BLI, 30C
T4 chain: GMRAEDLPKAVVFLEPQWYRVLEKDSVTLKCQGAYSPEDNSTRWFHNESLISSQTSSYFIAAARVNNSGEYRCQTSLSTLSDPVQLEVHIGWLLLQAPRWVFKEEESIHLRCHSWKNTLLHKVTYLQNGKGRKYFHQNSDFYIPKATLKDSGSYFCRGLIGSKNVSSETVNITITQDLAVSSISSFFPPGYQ

[11] = target: T5, CD16b-NA1 ECD deglycosylated (human); experiment: ELISA
T5 chain: T1 chain with S20R, S49N, N66D, I90V

CD16b-NA2 ECD [12] = target: T1, CD16b-NA2 ECD; experiment: BLI, 30C
CD16a-F ECD [13] = target: CD16a-F ECD (human); experiment: BLI, 30C
[14] = target: T6, CD16b-NA2 ECD deglycosylated (human); experiment: ELISA
T6 chain: T1 chain

Mouse FcgRIV = target: T7, Mouse FcgRIV (mouse, UniProt A0A0B4J1G0); experiment: BLI, 30C
T7 chain: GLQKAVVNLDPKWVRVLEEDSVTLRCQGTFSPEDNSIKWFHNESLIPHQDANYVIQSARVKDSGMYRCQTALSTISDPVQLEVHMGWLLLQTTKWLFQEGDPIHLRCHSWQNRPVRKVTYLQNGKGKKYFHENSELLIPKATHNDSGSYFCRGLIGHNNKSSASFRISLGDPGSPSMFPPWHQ

CD16a-V ECD [15] = target: CD16a-V ECD (human); experiment: BLI, 30C
CD16a-F ECD [16] = target: CD16a-F ECD (human); experiment: ELISA, + 10 mg/ml hIgG
CD16b-NA2 ECD [17] = target: T1, CD16b-NA2 ECD; experiment: ELISA
CD16a-F ECD [18] = target: CD16a-F ECD (human); experiment: ELISA; remark: listed apart in the source
CD16a-V ECD [19] = target: CD16a-V ECD (human); experiment: ELISA; remark: listed apart in the source
CD16a-V ECD [20] = target: CD16a-V ECD (human); experiment: ELISA, + 10 mg/ml hIgG
CD16b-NA1 ECD [21] = target: T2, CD16b-NA1 ECD; experiment: ELISA

Sequence of CD16a-F D82N (human) (chain, as listed by the source D82N): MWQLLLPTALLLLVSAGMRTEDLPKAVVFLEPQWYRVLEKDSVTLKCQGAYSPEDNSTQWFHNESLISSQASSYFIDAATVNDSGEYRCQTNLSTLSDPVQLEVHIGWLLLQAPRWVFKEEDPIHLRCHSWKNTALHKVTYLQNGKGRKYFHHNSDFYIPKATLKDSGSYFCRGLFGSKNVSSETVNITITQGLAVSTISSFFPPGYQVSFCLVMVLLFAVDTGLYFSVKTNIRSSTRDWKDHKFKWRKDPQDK

B1: #55 IgG1 (antibody)
chain 1: EVQLLESGGGLVQPGGSLRLSCAASGFTFSNYAMSWVRQAPGKGLEWVSAISGGGSYTYYADSVKGRFTISRDNSKNTLYLQMNSLRAEDTAVYYCARTYLRRWYYFDYWGQGTLVTVSS
chain 2: DIQMTQSPSSLSASVGDRVTITCRASQTITSYLNWYQQKPGKAPKLLIYAASSLQSGVPSRFSGSGSGTDFTLTISSLQPEDFATYYCQQSYTSPVTFGQGTKVEIK
Q: Does B1 bind (CD16a-F D82N)?
A: no binding

Q: And the Kd (CD16b-NA2 ECD [1])?
A: ~200 nM

Q: And the Kd (CD16a-F ECD-Fc)?
A: 0.1 nM

Q: Does B1 bind (CD16b-NA1 ECD [2])?
A: no binding

Q: What about the Kd [3] of the same binder?
A: 0.53 nM

Q: And the Kd [4]?
A: 1 nM

Q: What about the Kd (CD16a-V ECD [5]) of the same binder?
A: 0.4 nM

Q: And the Kd (CD16b-NA2 ECD [6])?
A: 239 nM

Q: And the Kd (CD16a-F ECD [7])?
A: 0.98 nM

Q: And the Kd (CD16a-F ECD [8])?
A: 0.28 nM

Q: Does B1 bind (CD16b on neutrophils)?
A: no binding

Q: What about the Kd (CD16a-V ECD [9]) of the same binder?
A: 0.85 nM

Q: And the Kd (CD16b-NA1 ECD [10])?
A: 73 nM

Q: Does B1 bind (Cyno CD16a ECD)?
A: no binding

Q: And the Kd [11]?
A: 11.2 nM

Q: And the Kd (CD16b-NA2 ECD [12])?
A: 214 nM

Q: And the Kd (CD16a-F ECD [13])?
A: 18 nM

Q: What about the Kd [14] of the same binder?
A: 1 nM

Q: Does B1 bind (Mouse FcgRIV)?
A: no binding

Q: What about the Kd (CD16a-V ECD [15]) of the same binder?
A: 6.6 nM

B2: #3A2 IgG1 (antibody)
chain 1: QLQLQESGPGLVKPSETLSLTCTVSGGSIGRGDYYWGWIRQPPGKGLEWIGTIDYSGRTYYNPSLKSRVTISVDTSKNQFSLKLSSVTAADTAVYYCARAFPGEYFGVFDHWGQGTLVTVSS
chain 2: EIVLTQSPGTLSLSPGERATLSCRASQSVSSSYLAWYQQKPGQAPRLLIYDATSRATGIPDRFSGSGSGTDFTLTISRLEPEDFAVYYCQQYDSSSLITFGQGTKVEIK
Q: B2 was tested. Which Kd (CD16a-F ECD [16]) did it give?
A: 0.74 nM

Q: And the Kd (CD16a-F ECD-Fc)?
A: 0.11 nM

Q: And the Kd (CD16b-NA2 ECD [17])?
A: 546 nM

Q: And the Kd (CD16a-F ECD [18])?
A: 0.048 nM

Q: And the Kd (CD16a-V ECD [19])?
A: 0.051 nM

Q: What about the Kd (CD16a-V ECD [20]) of the same binder?
A: 0.53 nM

Q: What about the Kd (CD16b-NA1 ECD [21]) of the same binder?
A: > 1000 nM

B3: #6A2 IgG1 (antibody)
chain 1: B2 chain 1
chain 2: not shown
Q: Which Kd (CD16a-F ECD [16]) does the source give for B3 here?
A: 0.67 nM

Q: What about the Kd (CD16a-F ECD-Fc) of the same binder?
A: 0.13 nM

Q: And the Kd (CD16b-NA2 ECD [17])?
A: 298 nM

Q: And the Kd (CD16a-F ECD [18])?
A: 0.14 nM

Q: What about the Kd (CD16a-V ECD [19]) of the same binder?
A: 0.16 nM

Q: What about the Kd (CD16a-V ECD [20]) of the same binder?
A: 0.61 nM

Q: And the Kd (CD16b-NA1 ECD [21])?
A: 1300 nM
